From paper PMC8863895
Where two headings read alike, the source gives them in different places.

Columns and labels:
[1] = target: C3b (human); test: ELISA; decay acceleration assay: 250 ng C3b immobilised on Maxisorp; C3bBb formed with 400 ng Factor B and 25 ng Factor D, 2 h 37 °C; increasing concentrations of regulator, 40 min 37 °C; Bb remaining bound to C3b detected with anti-factor B polyclonal antibody
[2] = target: complement C5; test: ELISA; 5 µg/mL C3b or C5 immobilised on Maxisorp plates at 4 °C overnight; increasing concentrations of regulator (0.195-50 nM) in sample buffer (2% BSA in TBS, 0.05% Tween-20); detected with anti-His-tag antibodies; absorbance normalised to the highest concentration; IC50 from a 4PL nonlinear regression
[3] = target: complement C3b (UniProt P01024); test: as above
[4] = target: complement C5; test: as above; remark: listed apart in the source
[5] = target: complement C3b (UniProt P01024); test: as above; remark: listed apart in the source

human factor H, plasma-derived (hFH), sequence (P08603 19-1231): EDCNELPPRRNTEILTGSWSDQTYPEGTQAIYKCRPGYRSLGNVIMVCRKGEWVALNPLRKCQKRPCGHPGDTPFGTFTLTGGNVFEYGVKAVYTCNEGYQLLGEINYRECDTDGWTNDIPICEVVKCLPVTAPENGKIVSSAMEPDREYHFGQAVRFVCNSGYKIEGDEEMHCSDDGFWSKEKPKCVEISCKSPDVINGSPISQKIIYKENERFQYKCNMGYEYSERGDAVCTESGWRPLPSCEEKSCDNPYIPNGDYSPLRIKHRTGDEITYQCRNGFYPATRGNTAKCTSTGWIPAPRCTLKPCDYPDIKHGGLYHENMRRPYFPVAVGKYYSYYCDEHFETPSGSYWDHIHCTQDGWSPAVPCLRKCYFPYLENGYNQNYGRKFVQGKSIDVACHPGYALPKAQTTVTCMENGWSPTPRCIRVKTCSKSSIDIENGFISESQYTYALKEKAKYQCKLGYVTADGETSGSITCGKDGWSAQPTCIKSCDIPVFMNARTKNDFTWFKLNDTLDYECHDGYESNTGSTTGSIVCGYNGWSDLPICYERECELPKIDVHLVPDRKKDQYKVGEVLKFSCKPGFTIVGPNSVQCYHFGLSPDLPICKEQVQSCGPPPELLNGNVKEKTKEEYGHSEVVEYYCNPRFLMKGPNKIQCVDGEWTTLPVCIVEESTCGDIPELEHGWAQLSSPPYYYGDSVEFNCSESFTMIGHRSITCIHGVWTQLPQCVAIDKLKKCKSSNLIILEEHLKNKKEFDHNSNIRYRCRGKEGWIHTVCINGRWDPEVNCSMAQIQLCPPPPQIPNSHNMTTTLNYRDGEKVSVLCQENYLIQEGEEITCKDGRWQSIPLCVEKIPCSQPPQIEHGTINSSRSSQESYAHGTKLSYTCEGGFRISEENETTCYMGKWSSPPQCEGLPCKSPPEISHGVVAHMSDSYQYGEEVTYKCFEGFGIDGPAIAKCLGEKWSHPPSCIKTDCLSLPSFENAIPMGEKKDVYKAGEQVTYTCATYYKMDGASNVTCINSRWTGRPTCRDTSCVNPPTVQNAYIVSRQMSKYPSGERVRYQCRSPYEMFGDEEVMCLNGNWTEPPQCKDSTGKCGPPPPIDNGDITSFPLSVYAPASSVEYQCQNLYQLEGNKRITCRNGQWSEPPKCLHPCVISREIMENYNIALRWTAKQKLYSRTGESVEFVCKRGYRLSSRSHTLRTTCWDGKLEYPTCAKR

Row | IC50 [1] | IC50 [2] | IC50 [3] | IC50 [4] | IC50 [5] | Substance
1 | 7.8 nM |  |  |  |  | MFHR1^I62 (FHR1_(1-2):FH1-4:FH_(19-20), isoleucine at position 193 = position 62 of factor H) (from UniProt Q03591 19-143; P08603 18-264; P08603 1107-1231)
2 | 9.4 nM |  |  |  |  | MFHR1^V62 (FHR1_(1-2):FH1-4:FH_(19-20)) (from UniProt Q03591 19-143; P08603 18-264; P08603 1107-1231)
3 |  | 26.8 nM | 6.32 nM |  |  | MFHR1^V62 (FHR1_(1-2):FH1-4:FH_(19-20), valine at position 62 of factor H)
4 | 3.8 nM |  |  |  |  | human factor H, plasma-derived (hFH) (from UniProt P08603 19-1231) (natural protein)
5 |  | 26.8 nM | 4.7 nM | 52.5 nM | 16.1 nM | MFHR1^I62 (FHR1_(1-2):FH1-4:FH_(19-20), variant with isoleucine at position 62 of factor H)
